Test results taken from PMC8376927 (2021).
Non-standard residues stand in square brackets, D forms with d. No end group written: not given here. *: point of attachment. 5FAM = O=C1OC2(c3ccc(O)cc3Oc3cc(O)ccc32)c2ccc(C(=O)*)cc21; pS = N[C@@H](COP(=O)(O)O)C(=O)O

Biological target: T1, Human 14-3-3γ WT (human, UniProt P61981 1-247)
T1 chain: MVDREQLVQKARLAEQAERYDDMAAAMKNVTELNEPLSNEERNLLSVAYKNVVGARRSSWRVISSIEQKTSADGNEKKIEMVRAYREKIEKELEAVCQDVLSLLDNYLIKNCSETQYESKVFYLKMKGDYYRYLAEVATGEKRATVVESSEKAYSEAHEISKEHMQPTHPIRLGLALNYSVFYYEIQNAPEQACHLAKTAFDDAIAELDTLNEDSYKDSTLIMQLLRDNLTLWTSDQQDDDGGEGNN
Test: FP

Kd: 48 µM
Binder: 5FAM-RRRWKL[pS]FSIV [FAM-aidDAPK-pS318 peptide (FAM-RRRWKLpSFSIV)]
